T1: bacterially expressed GST-SUV39H1, wild type (human, UniProt O43463 1-412)
T1 construct: human SUV39H1, wild type; cDNA amplified from the start to the stop codon (SUV39H1-F1, SUV39H1-R1); the text counts the protein to amino acid 412; also called SUV39H1-WT; GST-fusion SUV39H1; source: bacterially expressed (pGEX5X-3), purified (Glutathione Sepharose 4B)
T1 sequence (looked up): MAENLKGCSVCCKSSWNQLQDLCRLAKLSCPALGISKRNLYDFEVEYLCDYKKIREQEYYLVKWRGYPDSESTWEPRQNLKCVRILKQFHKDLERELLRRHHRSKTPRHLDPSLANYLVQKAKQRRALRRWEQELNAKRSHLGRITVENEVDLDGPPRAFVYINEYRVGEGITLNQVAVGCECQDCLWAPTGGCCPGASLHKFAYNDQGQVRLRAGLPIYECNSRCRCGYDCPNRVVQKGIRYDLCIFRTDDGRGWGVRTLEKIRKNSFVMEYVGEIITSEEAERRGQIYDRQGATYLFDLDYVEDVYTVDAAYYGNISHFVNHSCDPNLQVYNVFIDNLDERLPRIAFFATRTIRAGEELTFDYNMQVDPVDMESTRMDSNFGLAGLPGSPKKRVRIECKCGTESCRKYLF

T2: GST-SUV39H1 ΔSET (human, UniProt O43463 1-249)
T2 construct: human SUV39H1 that lost the SET domain and the C-terminal cysteine-rich region but keeps the SET-associated Cys-rich (SAC) domain; the text states no limits; source: bacterially expressed (pGEX5X-3), purified (Glutathione Sepharose 4B)
T2 sequence (looked up): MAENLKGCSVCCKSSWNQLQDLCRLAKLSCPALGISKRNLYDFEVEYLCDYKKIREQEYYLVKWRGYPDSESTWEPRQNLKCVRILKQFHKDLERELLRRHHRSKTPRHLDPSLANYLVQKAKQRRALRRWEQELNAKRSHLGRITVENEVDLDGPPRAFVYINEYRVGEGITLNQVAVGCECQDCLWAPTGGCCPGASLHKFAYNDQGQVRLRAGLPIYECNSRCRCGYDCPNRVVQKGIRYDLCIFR

T3: GST-SUV39H1 Nchromo (human, UniProt O43463 1-118)
T3 construct: human SUV39H1, C-terminal deletion up to amino acid 118 (SAC domain lost); source: bacterially expressed (pGEX5X-3), purified (Glutathione Sepharose 4B)
T3 sequence (looked up): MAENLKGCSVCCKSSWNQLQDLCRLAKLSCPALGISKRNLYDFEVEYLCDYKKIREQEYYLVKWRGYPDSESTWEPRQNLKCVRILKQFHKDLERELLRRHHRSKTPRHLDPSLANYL

B1: in vitro translated TaxN180 (domain or fragment)
chain: not shown
modifications: labeled with 35S-methionine
notes: HTLV-1 Tax with a C-terminal deletion up to 180 amino acids; source: in vitro translated (TNT QuickCoupled Transcription/Translation Systems, Promega)
B2: histidine-tagged wild type Tax (His-Tax) (natural protein)
chain: not shown
notes: Tax protein of HTLV-1, wild type; also called His-tagged Tax protein; source: bacterially expressed (pET3d/Tax), purified (ProBond Resin)

Key:
[1] = molecular target: T1, bacterially expressed GST-SUV39H1, wild …; test: pull-down; GST-SUV39H1 bound to Glutathione-Sepharose 4B, mixed with in vitro translated 35S-labeled Tax proteins (one fourth of the reaction mixture); autoradiography, signals by BAS2000; conditions: one partner purified
GST-SUV39H1 ΔSET = molecular target: T2, GST-SUV39H1 ΔSET; test: pull-down; wild type or mutant GST-SUV39H1 or GST (2 ug) bound to Glutathione-Sepharose 4B, mixed with His-tagged Tax (2 ug) in cold PBS, 4°C, one hour; immunoblot with Lt-4; band intensities by NIH Image; conditions: both partners purified
GST-SUV39H1 Nchromo = molecular target: T3, GST-SUV39H1 Nchromo; test: as above; conditions: both partners purified

Binder | radioactivity relative to the wild type Tax [1] | band intensity relative to the wild type (GST-SUV39H1 ΔSET) | band intensity relative to the wild type (GST-SUV39H1 Nchromo)
B1 | ~0.5 of the radioactivity of the wild type Tax | – | –
B2 | – | < 0.5 of the band intensity of the wild type | ~0.1 of the band intensity of the wild type

Reference: PMC1363732, “SUV39H1 interacts with HTLV-1 Tax and abrogates Tax transactivation of HTLV-1 LTR” (Retrovirology, 2006)
